# System: K4 kissing-loop RNA reporter
# Assay: apparent KD of K4 kissing-loop reporter; higher = weaker reporter binding
# Conditions: Eterna round: R107
# Experimental: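 RNA-MaP round R107: designed RNA switches with theophylline, tryptophan, arginine or FMN aptamers are transcribed on-chip within common flanks. They are titrated with a labelled K4 kissing-loop RNA reporter in RNA-MaP buffer (100 mM Tris pH 7.5, 80 mM KCl, 4 mM MgCl2), without ligand or with the indicated ligand. Median apparent KD per design.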
# [1] = input ligand: theophylline 20 uM
# [2] = input ligand: tryptophan 2.4 mM
# 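Note: bound reporter read as fluorescence of individual clusters on recovered sequencing chips by microscopy, with normalized cluster intensities fitted with a binding model.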
Sequence,apparent KD of K4 kissing-loop reporter (input ligand: FMN 200 uM) [nM],apparent KD of K4 kissing-loop reporter (input ligand: arginine 13.2 mM) [nM],apparent KD of K4 kissing-loop reporter (input ligand: none) [nM],apparent KD of K4 kissing-loop reporter [1] [nM],apparent KD of K4 kissing-loop reporter [2] [nM]
GGACGCCGGUCGGCCGCCACUCACAGCAGUGAUGUUGCUGAGAAUGUAGCGGAGUGAUGUUCCGAGAGGACCGGGACUGCAGUUU [Same State Tryptophan B GF 9],240,157,198,186,210
UGAUAGGACAGAAGGAGCGGUAGUGAUGUUACCAAAAGGUUAAGGUGUCAAAAGACACCCUACCAGGUAGGUCGCUGUCCUAUCU,152,164,161,126,136
UUUUAUUCGUACUUCUAGUGAUGUUAGAUUCGAGGACCGGUACGGCCGCCACUCGUUAAGGCGAUUUUAUAUUUUUUAUUCUUUA [JR_SSTryptoA_Sub012],182,165,179,165,138
AUUUUUUACAGAAGGAGCGUGUUUUAAUAAUCAUGGUGCUUAGCGAGUGAUGUUCGCUUUACACAGGUAGGUCGCUGUUUAUUUA [JR_Nu_ExcArginiB_Sub030],120,113,127,112,112
GAUGCCAUGAUCCUCCUGGUAUCGGGAGAUACCAGCGUGCUGACACGCCCUUGGCAGCUCCAUUCGAGAGUGAUGUUGUCGAGAA [KL-SSTheo-A8 #analogue],453,114,330,237,287
CCGGCCCGGCCGGAUACCAGUGCGCCGCUGGGAACCGCGGGCCCAGAGUGAUGUUCGGGACACCCUUGGCAGCCGCCUGGGUCGC [#2 Same State - Theophylline B Attempt #24 (HarryS)],398,140,247,217,240
CUUGAUGUAGCGGCCGCCACUCUAGAUCCGCAUCGGAUGAGGUACUUGAAGUGAUGUUUUGAGGUGAGGACCGGGCUCUAAAGAA [theeternabot_sameState_KL_Trp_B_16],750,455,564,452,420
GCUCAUCCGGCAGGAUAUAGGCAGGUAGAGUGAUGUUCGAACUGCAGUUAUCCAUCCUUCUACCUACUAGAAGGGCCGGAUGAGC,376,214,209,188,292
CUGACGAUGACACGGUGGCCGCUGGUCGUGCGAGGACCGGUACGGCCGCCACUCGCAUGAGUGAUGUUCAUGUGUCGUCGUCGUC [#08 K4 Tryptophan A Exclusion],133,101,111,112,118
UGUCAUUGGUCUGAUACCAGUUGAUGACGAAUACGUCAACUGGAGUGAUGUUCCAAUAACAACCCUUGGCAGCAGACCGAUGACU [MAT - Same State Theophlline B - Mod of Eli - D3],557,494,530,953,563
GCAUGGAUCGCAGGAUAUAGAUCCGUGAGUGAAUUCUUGCCAGUGAGGAGUGAUGUUCCUCAUGGGCUAGAAGGGCGAUCCAUGC,140,80.8,89.4,85.9,83.5
UCCUGCAGUCUGCCACGAAAGUGGAUUGAUACCAGAGUCGAAAGACUCCCUUGGCAGCGAGUGAUGUUCGAAGCAGGUAAAUAAA [MatMod 1 - Jieux - Exclusion - Theophylline A],160,204,178,221,130
CAGAUGUAGGCGGCCGCCACUCUCAUUACCGUACGCAAGUAUGAUUAGAAGUGAUGUUUCUCGGUGAGGACCGGGCCAUUCCCGA [theeternabot_sameState_KL_Trp_B_27],690,551,670,672,545
CCGUAUGUCCACUAUUGAGUGAUGUUCAAGCGAGGACCGGUACGGCCGCCACUCGCGUUACCCACCACGUGUCGCCGCACUUACC [theeternabot_exclusion_KL_Trp_A_42],203,160,203,159,370
CCCUAAAUAUGCAGUGAUGUUGCAACUGAUACCAGUAUCGAAAGAUACCCUUGGCAGCGGAAAACCGCUACGUAAUUUAAAAGGG [Ex Theophylline A K4 19],243,327,356,385,243
AUUUUUUUAUCAGGAUAUUAGUGAUGGUUGUUUUUGUUAGUGAUGUUGAUAUUUGUUUUAUGUAUUUAAGAAGGGAUUGAGAUGU [zbbzmullin],68.1,24.7,42.9,31.7,49.7
AAGGGCGAGGUAACGUGGAUAUCUCGUCGCAAGGAUAUCUGGAAACAGAGAAGGUGCGACAUCACCGGCAGUGAUGUUGCUGGGC,298,185,233,227,181
AAAAGCAGAAAGACGCAUUAAAGAACCGAAGGAGCGCGGAAUUACGCAGGUAGGUCGCGGGAUAAGCGAGUGAUGUUCGCGAAAG [Arginine A Same State; Euphoria Solution],60.7,105,72.1,89.5,53.6
UCGUUAAAAGCGGCCGCCACUGCCAGAGCUCUGGAAAAGGCUGGAGUGAUGUUCUGCCUAGUAGACAGGACCGGGCUAUUGGAUU [theeternabot_sameState_KL_Trp_B_29],667,422,609,588,594
UGACAUUGCUCAGAUACCAGACAUGAGCAUCAGCCAUGUACCAAGAAAGUACAAUAAAAUGUCCCUUGGCAGCUGAGCAAUGUCU [TheoBX 8],56.1,25.6,47.8,121,48.4
CUUCGAUUAACAGAUACCAGUCACUUGGGAGCCACACACAAGUGAGUGAUGUUCACUUGUGACCCUUGGCAGCUGUUAGUCGAAG [#04 K4 Theophylline B Exclusion],102,86.5,97.2,127,103

Sequence,apparent KD of K4 kissing-loop reporter (input ligand: FMN 200 uM) [nM],apparent KD of K4 kissing-loop reporter (input ligand: arginine 13.2 mM) [nM],apparent KD of K4 kissing-loop reporter (input ligand: none) [nM],apparent KD of K4 kissing-loop reporter [1] [nM],apparent KD of K4 kissing-loop reporter [2] [nM]
GUAGAUAGGCUACAUCUCUAGUCUAAAGACUAGGAUAUCAGGAAACUGAGAAGGAGUCUCAUUGGAGUGAUGUUCCAAGAAUAAU [KL-SSFMN-A16],100,106,89.2,109,71.7
UUAAUUAAGACGGCCGCCACUGAAUUAGAGUGAUGUUCUAAAAUUACUAAAUUAAAUUUAUUCAACAGGACCGGGUCAAUUAUUA [JR_SSTryptoB_Sub009],516,435,560,527,524
UUGUAUAGUGGAAGGAGCGCGUGGGCGCAGUGAUGUUGCGCCCGACAUCACUUCAACUUAACGCAGGUAGGUCGCCAUUGUAAUG [Arginine B (Excl) V5],131,88,113,104,101
UAUUAAUUGUCAGGAUAUCGAAAUCGAGUGAUGUUCGUAAAUUAAUUAUUAUUAAUAAUAUUUAAACGAGAAGGGACAUUAUUUA [JR_SSFMNB_Sub001],235,558,694,647,442
GCUAUAGUGUUAGAUACCAGUAUCCUGCAAAGCCAUCAAAUGCAGUGAUGUUGCAUAAACUACCCUUGGCAGCUAAUUGGGCUCU [theeternabot_exclusion_KL_Theo_B_49],226,201,213,213,187
CCUUCUCUUGAUAGUGAUGUUAUCGAGGACAAGGAUAUCAUCUCAAUGAGAAGGUGUCCUUGAUAACAUGGAGGUCUGAAACAGA [Omei KL FMN A Exc C v9],205,355,439,427,454
CUUAGGUCAGUUACCCGAGUGAUGUUCUGUCGAGGACCGGUACGGCCGCCACUCGCUCAUUAUCGGUCUGACAAAGAGCUGGCUU [theeternabot_exclusion_KL_Trp_A_9],393,56.4,208,136,106
AAUAAAAUCACGGCCGCCACUGAUUUCCGUAUUAGGAGUGAUGUUCCUAUGACUAUAUAAUUUAACAGGACCGGGUGAAUAUUUA [#21 K4 Tryptophan B Exclusion],111,109,110,107,97.8
UAUAGAGUGACGGCCGCCACUAUUGUGAUUUAAUUGUUAGAGUGAUGUUUUGUUGUUUGAUUUUGUAGGACCGGGUUAUAUGUUA [ecewzmullin],1050,768,976,854,802
CGCUUGGGUGCGGCCGCCACUAGAGCGUGACACGGGUCCCAAAAGGGUGCAGUGAUGUUGCAGCCUAGGACCGGGCACCUCUGGC [Beveesbe],107,83,90.4,70.1,167
AUUUAGACGAGUGAUGUUCGUGUUUUUUCAGAGGAUAUGCGUAAUUGCAGAAGGCUGUAUUUAUAUAUGUUUUGUUUUUUUAAAA [JR_ExcFMNA_Sub008],80.4,92.1,75.4,93.6,69.3
UUUCCAGAUAAGUGGGAACGCUCCAUAACAGAGGAUAUCAGAGCGCUGAGAAGGCUGUUUUACAGUGAUGUUGUAAGUGUGGAGC [#10 K4 FMN A Same State],158,272,299,282,252
AUAGCUGAUAGCAGUGAUGUUGCUUCAGAUACCAGACGAGAUCAUGUCCCUUGGCAGCUGACAUGGCAAGUGCUAGGUUAGAUGA [#11 K4 Theophylline A Exclusion],140,114,125,120,130
UCACUCAUGUGAAGGAGCGUGAGAAGACAUGAGUGAUGUUCAUGUCUAGACCAGCGUCUCUCACAGGUAGGUCGCACAUGAAAGG [Arg B SS t10],128,105,121,100,121
GGAGGAGAAUAUGAUACCAGCAGAGAGAGAGAGGAAGUAUAGUGAUGUUAUAUGUGAGAAUGCCCUUGGCAGCAUAAGAAGAAGG [whbob_SS_Theo_B_sa87],140,147,156,170,132
GGAGUUACCUGGGAUACCAGUCGGAGACCCAGAGCUCGGAGUGAUGUUCUGGGAUGUUUCGGCCCUUGGCAGCUCUGGGUCUCCC [#2 Exclusion - Theophylline B Attempt #8 (HarryS)],909,615,723,936,675
GAUUUAGAGGCGGCCGCCACUAGUGAUGUUAGUGAUGUUUGAUACUGAAUAUAUCUGCGUUUAGAUAGGACCGGGCCAGAUGGUG [ddcmullin],261,159,193,215,197
UCCACGCUUCGAGGAUAUCGGAUUAGAGUGAUGUUCUAAAGACGCCCAGUGAUGUUGGAUGCGAUACGAGAAGGCGGUGGCGUGU [Same State FMN B GF6],236,195,244,140,176
UGUUUUUACUGAAGGAGCGGCAAUUGAUACGUAGAUAUAGUGAUGUUAUAUAAGAUAGAGAGCCAGGUAGGUCGCAGAAUGUAUC [ExArgB.aC],214,212,237,252,231
CUCCUUGGCUAAGGAUAUCGUAGUGAUGUUAUGGUCUUUGCUAAGACUUCUGAUAUUGAAUUCCGACGAGAAGGUAGAAGGACGG [theeternabot_exclusion_KL_FMN_B_18],817,690,835,745,626
AGACUACCACACUGUCAAUAGACAGUGAGCUAGGAUAUGCUGAUAAGCAGAAGGAGUGAUGUUCCGAGGUAGUCAAUAAAAUAAU [FmnAX 13 G29+G66],395,273,261,357,257

# From the supplement of paper PMC9170038
